Values quoted from earlier work, collected in patent publication US20070299244A1, “Liposome allowing liposome-entrapped substance to escape from endosome” (Japan Science and Technology Agency, priority 2005, published 2007).
Where two headings read alike, the source gives them in different places.

GALA: synthetic peptide comprising the amino acid sequence represented by SEQ ID NO:1 (AALAELAEALAEALHEALAEALAEALAAEW; Designed peptide called “GALA”)
Proportion of α helix structures (pH 5.0): about 70%
Proportion of α helix structures (pH 7.4): about 20%
